Measured values from the DeepSol protein solubility set.

Test: soluble on expression in E. coli; label from the status in PepcDB or PDB records

Row | Sequence | soluble on expression in E. coli
1 | MKPLSSAIAAALILFSAQGVAEQTTQPVVTSCANVVVVPPSQEHPPFDLNHMGTGSDKSDALGVPYYNQHAM | soluble
2 | MKPTDTSEKALEQLIVRHLAGISEHASVPPNAVQSPGAIYALGGYVLGRATDFNRDVALDTVQLLAFLQATQPDAVETLELAHEGIKRTQFLHRLQGEITKRGVVDVLRKGVSHGPVRVDLYRLLPTPGNTNAAEAFGRNIFSITRQVRYSHDSGNELDLVIFVNGLPVLTFELKNSLTKQTVADAIVQYQSTRSPQELLFQPGRCIAHFAVDDAEVYFCTELKGKASWFLPFNQGWNNGAGNPPNPNGLKTDYLWKQVLAKESLANIIESFAQVVEEQETDATTGRKKKKRKPVFPRFHQLRTVRALLRRTRSDGVGKRYLIQHSAGSGKSNTIAWLAHQLVELRSVADPLMPQFDSIIVITDRRALDTQIARTIKGYDHVASIFGHSDNAQELRDYLRRGRKIIVTTVQKFPFILEEIGDLSGRTFALLIDEAHSSQGGKTTARMHEALSGKTDEEAFEEDATQDAVNTEIEKRIQSRRMLSNASYFAFTATPKNRTLELFGEKTVVDDKVEFRSPEELTYTTKQAIQEGFILDVIAHYTTLDSFYQVAKTVENDPDFDKARALKKIRHYVESHDKAIRRKAEIMVDHFVAQVMGAKKIGGKARAMIVCNGIARAIDYWREVSDYLEQIKSPYKAIVAYSGEFEIGGEKKTEADLNDFPSKEIPDRLRQDPYRFLIVANKFVTGFDEPLLHTMYVDKKLAGVQAVQTLSRLNRAHPQKHDTFVLDFADNAEAVKKAFQDYYRATIQTGETDANKLHDLKADLDDKQIYSWPQVEDLVALYLSGADRDKLDPILDHCVEQYQANLDEDNQVEFKGKAKAFVRSYGFLAAILSYGHPAWEKLSIFLNFLIPKLPAPKEEDLSKGVLESIDIDSYRVEARAALKMAMDDTDATVEVAPVGGGGGKGEPDIDKLSNILKTFNDLFGNIDWKDADKIGKVIAEEIPVRVAQDKAYQNAQVNSDRQNAKLEHDKALNRVVLELLSDHTELFKQFSDNPNFKRWLTDMVFDVTYQQNPAHGVEDVRMRALDIVRDRFDAAVVWSQAVDMLLDRLAAGGRNSLGIADLALIEETSGLSVSHVLFPVLNLLSAHDVGILNREFVRVGSTDTPQTMSFDEVRLLAQKDPEGDDWAECLSIRWALQDAQR | not soluble
3 | MKPYERLLEHNIKPSMQRIAIMEYLMNHPIHPSADDIYTALSPSMPTLSKTTVYNTLRLFSEQGAALMLTIDEKNTNFDADTSVHSHFLCRYCGHIYDLKSPEAVKKVESLEMDGHQVTEVHYYYKGICKNCLRKDKETRID | not soluble
4 | MKQDMWELRKIQSQGITDNAQYPAGTYIVFTAAAPYIPLFEQHGKDDIALSLVRHEEAWWIVNHSDELCCAVNEQVMEPHHRMRLNDGDTIEWGLSSWCLARTNDESRPDVSFPQLVQSSESVAEYLDLDWFKQQQLNPQNPFDIIPVRETASSYTGHEADSTLHQLYQEYQQALRPSGQEKPLRAKPFPRNEDAVTQDLTSLYDKKGDTDTLQDMVAGAPGIDAILDTLDTTGEGEMHWLAMESMPDILQLLSPELGGKTAHSEILPDLTRREHRIIGIDSHYRITPTQKNGNTAHEKN | not soluble
5 | MKQEFTRIAVKVGSNVLARRDGTLDVTRMSALVDQIAELNKSGVEIILISSGAVASGRSEIHPQKKLDSVDQRQLFSAVGQAKLINRYYELFREHGIAVGQVLTTKENFSTRRHYLNQKNCMTVMLENGVIPIVNENDTISVSELMFTDNDELSGLIASMMDAQALIILSNIDGIYNGSPSDPASAVIREIEHGKDLSNYIQATKSSFGRGGMLTKTNIARKVADEGITVIIANGKRDNILVDLLQQPDDTVCTRFIPSTEAVSSVKKWIAHSEGFAKGEIHINECATDILSSEKAASILPVGITHIEGEFEKDDIVRIMDFLGNQVGVGKANCDSAQAREAMGKHGKKPVVHYDYLYIE | not soluble
6 | MKQFGLAAFDELKDGKYNDVNKTILEKQSVELRDQLMVFQERLVEFAKKHNSELQASPEFRSKFMHMCSSIGIDPLSLFDRDKHLFTVNDFYYEVCLKVIEICRQTKDMNGGVISFQELEKVHFRKLNVGLDDLEKSIDMLKSLECFEIFQIRGKKFLRSVPNELTSDQTKILEICSILGYSSISLLKANLGWEAVRSKSALDEMVANGLLWIDYQGGAEALYWDPSWITRQL | soluble
7 | MKQIKWWLLAVLLVVGLTGCGSQTTKKQATQQAASTKKISPYVNQQTPTFYVHGFQGSAKSTNTLIAHAEKTAHAHKVLVATVSTSGQVTLTGKWRGRVRNPIIQVVFKNNLAQYDQQSAWLAKVITTVQQQHAFKHYNIVAHSAGCVASVNMLMTQQTTTFPKINKLVTIAGPFDGVVGEDDVANQNSFLTSGQPKYLHAAYELLAAKRNNFPKNVQLLNIVGTLNDGSHSDSLVTNVSARSIKYLLRGRDVDYTEKDFYGAHAQHSQLHENAKVALAVDRFLWHR | not soluble
8 | MKQIYFGGGCFWGTQKYFDLIKGVQKTSVGYLNSNMKNPTYEQVCSGQTNAVEAVFVEYDENKVSLNELIDAFFKVIDPTIRNRQGNDIGTQYRTGVYWVDPQDEQLITQKFRELQANYPKPIVTENRAMENYFLAEEYHQDYLKKNPHGYCHIKFD | soluble
9 | MKQPPLEDQYQMFGSIALSAFGAELLRHSLLPELLGKDAASLLYWAGKQLARRYPLGTLDDVAVFFERAGWGELSTGEERNDELYIELSGPIIAARFSLYGSCSFQLEAGFLAQQIEQQKRFVTEAVELPPKRDGKARILVKWDRKQAIE | not soluble
10 | MKQVPPAAPVAPWLGGKKRLHPLILERIEAIPHRAYVEPFVGMGGIFLRRRFRPRLEVMNDRNGEIINLFRILQRHYPQLLEIMRFQICSRREFDRLRLTDPATLTDLERAARFLYLQRLSFGGKPNGSFGISPGNGPLFSLARLEPLLDAARTRLDGVVFECLDWADLIPRYDTAETLFYLDPPYFGGENDYGKGLFDRAQFARIAEILGSLKGAFLLSINDTPEIRALFGRFHLEPVRLNYSVSAAGSTEAQELLVSNRERIATLL | not soluble
11 | MKRALFVAEKNDVAKGVAAILSNGTANRREGRSKFNKIYTLNTELFGQQTAISVTSVSGHMMNFQFHENMSNWQTASMVELFRAPVRHVVTPEMKLIEQTLREQAQRHDILVVWTDCDREGEAIGAEIVKVCRDSNRRLDIFRARFSEITKAAITRAARNLIRLDEKTVAAVDCRSELDLRIGSAFTRLQTLHLRNRFRDLLGQNDTSQVISYGSCQFPTLGFVTDRYKMIENFVSEPFWKLIVEHTRESHKVEFLWDRNRLFDRDTVDILHDECKETKEAHVEKVAKKPKSKWRPQALDTVELEKLGISKLRMSAKQTMQVAEKLYSKGFISYPRTETNKFPAGLNLTPLVQQQTQSNIWGDFANEVLQNGVNPRNGRKSDEAHPPIHPLKFTEKHQLQGDDWKVYELVVRHFLACVSQDAQGEETMVNLTVGTEKFHASGLRIRDMGYLKVYVYEKWGNRLLPTYTEGERFTDFELKIGDGKTQAPDFLTEADLISLMDKYGIGTDATHAEHIEKIKTREYIGVRPDGKLIPSFLGLALVDGYDDMGFAMSKPDLRANLEIGLKEICDGRRQKQEVLDEQIGKYRAIFVESERKIGVLSQSLQRYLDKNNQAGGGPGGPGGGGGPPRGPGGGGGGGPTGPPAPPKPPAKPRGRPPRKSISPAVKNGHDDPENDTIVTLSEVFGSMSNPKPARKPRAPRKSAAPKEQEEEEEVFCQCPEPMRAVTKVVQKEGPNKGKKFYTCSLPYTSSEKCNFFKWA | not soluble
12 | MKRANAVKLIVGKETHEKLKELAIVAAKCWNEVNWLRMQQFKEGERVDFSKTEKEVYEKYKQILKVNTQQVARKNAESWRSFFSLIEEKKGKLPKWFKPRPPGYWKDKSGKYKMLIIIRNDRYEIDEEKRIIYLKDFKLSLSFNGKLKWRGKQGRLEIIYNEARRSWYAYIPVEVQNDVKAEDKLKASIDLGIINLATVYVEDGSWYIFKGGSVLSQYEYYSKRISVAQKTLARHKQGRSREMKLLHEKRKRFLKHALNSMVRKIMEEFKNKGVGEIAIGYPKEISKDHGNKLTVNFWNYGYIIRRFEGVGEELGVKVVKVDEAWTSKTCSLCGEAHDDGRIKRGLYRCLRIGKVINADLNGAINILHIPESLGAGSRGQLTVRDRGNGLKTQPAVYRWTNGAGWVSSPTSYEVMKMKAVNCKPMNRHKGTFTLLEHHHHHH | not soluble
13 | MKRCDLHIHTVPSVSDREFTYDKEILSDYVAKTKLDVIAITNHNLFDYAQFQEIKDILPQIVVLPGIEVDLEDGHILVIANNDDRTLFDFNSKCEEIKNLIKSEADNITYDRFVGIFGDLSKYLLIPHYEKEPKLRKDILEKLGRNIIAGEVSSVKKFIYMEKERAGLTPVYFSDFRIEKGITPDKYPVSHTFFDVDEVNIKTLKLCLMDKTKVSLTSEEGIKLFPIFPNGQKLSTGLNIMYGKRSTGKTFTLDAIASRFNGKAKYIKQFELLNTNRNDSEQFESDMKVRQEESAENYLREFSDVVTDMLKTCSSDEDDIKLQKYLDAVKSSAQQSNVNDVFSKSKLFNESDFKERSCDEIKELINATQTLLESQLYKKIINKHLSEISLKALLKDLIELYLEGNAANQYVKEVNNMIKMVKESLQLKSAAPRIPDIDLYQYFINKKKREVFAQIAMSVKKSRTISTEKAGHFTVSVSARPFMNATDLKTVRLTQVSLTNAFKKYENPVQYLNELKAAGVEINRIYKLFAAIDYKILNSSGLPVSGGERSEFNFLQKIKDAILCDILIIDEPESSFDNIFLKNEVNKFIKEMAENMPVIISTHNNTIGSSIKPDYILYTEKKMEADGAHFKIYSGYPTAKELRDVDGNTIENYEITLNSLEAGEQAYSERKDIYETLKN | not soluble
14 | MKREDLLRHLAETEVWDMIVIGGGATGLGTAVEAAGRGYRTLLLEQGDFAQGTSSRSTKLIHGGVRYLQQGNLTLVLEALRERGLLIRNAPHLVHNLSFVVPLYDWWEGPFYGIGLKLYDVLAGKLGLGPSRLLSREETLGHIPTVEPHGLRGGVIYHDGQFDDSRLAISLALTLADLGGVALNHFPVTGIISRDGLVAGVEARDRETGGAFRIMGRAVINAAGPFVDGVRRLADPAARDLIAPSQGVHLVLDGSFLPGDSAIMVPHTDDGRVLFAVPWHGRTVVGTTDTPIPAAGLEPRPLPEEIDFLLSHAARYLTRHPERRDVLSTFAGIRPLVRSDSGGDTASLSRDHTLLVEGSGLVTIAGGKWTTYRKMGEDTVTAAAQVAGLDHRPSVTETLRIHGWQEDATEGPLQVYGSDAAALEQLLRENAAWREPLHPALPYCAGEVVWGVRHEWARTVEDVLARRTRALLLDARAAVAAAPRVAELMARELGRDSDWQAAQVAAFTHLARGYLPELEHHHHHH | not soluble
15 | MKRFLLLLCALLSFSALAAPKADLWPYWQQSNGVNQTSISHLEWQQLLDSYLVTRGDNTLFRYNQVSFADKTKLKQYIQRLASLNPLQYRQAEQYAYWVNLYNALTVHLILDNYPITSITKLGGLFSFGPWDQGVIIINGKSLTLNDIEHRILRPIWQDPRTHYAVNCASLGCPNLQTQAFTAENTQTLLESAAKTFINSKKGVSIEGDTAKISSIYEWFAVDFGGEKEVFNHIRKYAPQYNHFSGRVKYDYDWSLNQADLEHHHHHH | not soluble
16 | MKRLEVSNQAKLPTQFGEFYIQCFREKGSNGSKDHLVVFTPNFSQNPLVRLHSECLTGDALGSQKCDCGGALQMALERISKEGGLVIYLRQEGRGIGLFNKVNAYALQDKGYDTIQANEMIGFKDDERDYSVAGEILEYYRIKKMRLLTNNPKKIAALEKYAEVTRESLIVCANEHNQGYLEVKKLKMGHLLLEHHHHHH | soluble
17 | MKRLLLSAAILSSMALFNVNAQELKTSADMKGSFKKNVVLEVFTAEWCGYCPGGKERIAKAIEMLDDEYKERVFQTFVHYNDGISKKWPRVGQLFIALDQTLGIPGFPTFSVCRMEKKGENLSIGAPIAIKNKIMKGFGDGTAPAEVNLKLTKGATPEDVCTATFTGKVDADLIGKPLMLTAYVLKNNMKPINPQNGAGDGYLHQHTVLMILSTDVKGDALNIAADGSFTIKKEFKLDGFEIKDTDVLAFVHHPMSNAENHSIINAGQESLDKAEPTATEQIVATPSVKAYVQNGKIVVEEEYSKMEVFNATGQLVKNESLVPGVYVVRITANGVMYFLKVLVPMAGDPLEHHHHHH | soluble
